Substrate in the data set: CC(=O)N[C@H]1[C@H](O[C@H]2[C@H](O[C@H](C)C(=O)N[C@@H](C)C(=O)N[C@H](CCC(=O)N[C@@H](CCC[C@@H](N)C(=O)O)C(=O)N[C@H](C)C(=O)O)C(=O)O)[C@@H](NC(C)=O)[C@@H]3OC[C@H]2O3)O[C@H](CO)[C@@H](O)[C@@H]1O
The data set can be described thus: purified protein. The format is biochemical, Drosophila melanogaster. The note with it: 20 mM HEPES pH 7.4, 2.5 mM EDTA, 37 °C, substrate 10–500 μM, releases terminal D-Ala.

Here are results for one protein from article PMC515366, “A Drosophila Pattern Recognition Receptor Contains a Peptidoglycan Docking Groove and Unusual L,D-Carboxypeptidase Activity” (PLoS Biology, 2004).

B1: rPGRP-SA (recombinant Drosophila PGRP-SA) (Drosophila melanogaster) (protein)
chain: GKSRQRSPANCPTIKLKRQWGGKPSLGLHYQVRPIRYVVIHHTVTGECSGLLKCAEILQNMQAYHQNELDFNDISYNFLIGNDGIVYEGTGWGLRGAHTYGYNAIGTGIAFIGNFVDKLPSDAALQAAKDLLACGVQQGELSEDYALIAGSQVISTQSPGLTLYNEIQEWPHWLSNP
notes: full-length secreted protein, own signal peptide removed, 177 residues plus C-terminal 6xHis tag; baculovirus, Hi-5 insect cells; monomer by gel filtration
Broadly, the Km is the substrate concentration at which the rate is half of its maximum. As a reminder, the kcat is the maximal rate divided by the concentration of active sites. Consider B1, for which the Km is 21.4 ± 1.8 µM and the kcat stood at 0.000133 ± 5.6e-06 s⁻¹.
